Results on 16 molecules are retold here after US20230265151A1, “GIP/GLP1 CO-AGONIST COMPOUNDS” (priority 2020, published 2023).

Changes are numbered by the printed parent chain.

What all share (experiment): cell-based or functional assay
Assay [1] concerns the target human glucagon-like peptide-1 (GLP-1) receptor (human, UniProt P43220 24-463).
The target in assay [2] is T1, human glucose-dependent insulinotropic polypeptide (GIP) receptor (human, UniProt P48546 22-466).
T1 sequence (looked up): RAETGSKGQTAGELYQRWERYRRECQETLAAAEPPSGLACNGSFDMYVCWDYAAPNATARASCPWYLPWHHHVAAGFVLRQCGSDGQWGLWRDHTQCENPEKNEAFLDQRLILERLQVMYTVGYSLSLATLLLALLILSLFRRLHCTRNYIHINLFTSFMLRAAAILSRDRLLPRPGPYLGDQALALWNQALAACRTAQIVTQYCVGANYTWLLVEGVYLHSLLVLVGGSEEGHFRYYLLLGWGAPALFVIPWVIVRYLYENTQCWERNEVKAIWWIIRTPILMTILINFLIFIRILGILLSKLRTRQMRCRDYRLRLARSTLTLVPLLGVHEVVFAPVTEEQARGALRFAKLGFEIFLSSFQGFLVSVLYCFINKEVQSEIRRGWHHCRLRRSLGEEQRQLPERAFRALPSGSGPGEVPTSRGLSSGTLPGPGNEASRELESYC

Assay [3] concerns the target human glucagon receptor (human, UniProt P47871 26-477).
In a further assay the target is T2, human GIP receptor (human, UniProt P48546 22-466).
T2 sequence (looked up): T1 sequence (looked up)

Assay [4] has as its target human glucagon receptor (human, UniProt P47871 26-477). This is another data set of the same source.

B1: Example 200 (peptide)
peptide: YXEGTXTSDYXIXLDXKAQXEFIXXLIEGGKSSGAPPPS
modifications: Aib2, αMeF(2F)6, Dap11, αMeL13, Orn16, K17(Z), Aib20, D-Glu24, αMeY25, K31(Z), C-terminal NH2; Z = AEEA2-(γ-Glu)-CO-(CH2)12-CO2H
As to B1, the “cAMP EC50” value in assay [1] is 0.834 nM; in assay [2], 0.0503 nM; with human glucagon receptor [3], over 9950 nM. Also, the “cAMP Emax” value in assay [1] amounted to 93.7%; in assay [2] it was 96.3%.

B2: Example 210 (peptide)
peptide: B1 peptide with Y10X, X11S, E28K, K31P
modifications: Aib2, αMeF(2F)6, 4Pal10, αMeL13, Orn16, K17(Z), Aib20, D-Glu24, αMeY25, K28(Z), C-terminal NH2; Z = AEEA2-CO-(CH2)12-CO2H
As to B2, the “cAMP EC50” value in assay [1] is 0.57 nM; in assay [2], 0.02 nM; in the assay with human glucagon receptor [3], over 9950 nM.

B3: Example 259 (peptide)
peptide: B1 peptide with Y10X, X11S, E21K, K31P
modifications: Aib2, αMeF(2F)6, OMeY10, αMeL13, Orn16, K17(Z), Aib20, K21(Z), D-Glu24, αMeY25, C-terminal NH2; Z = AEEA2-(γ-Glu)-CO-(CH2)12-CO2H
Take B3: the “cAMP EC50” value in assay [1] was 0.362 nM; in assay [2] it was 0.0198 nM; with human glucagon receptor [3], over 9950 nM.

B4: Y-Aib-EGT-αMeF(2F)-TSD-4Pal-SI-αMeL-LD-Orn-IAQ-Aib-EFIK((εK)-(εK)-(γ-Glu)-CO-(CH2)12-CO2H)-αMeY-LIEGGK((εK)-(εK)-(γ-Glu)-CO-(CH2)12-CO2H)SSGAPPPS-NH2 (peptide)
peptide: B1 peptide with Y10X, X11S, K17I, X24K
modifications: Aib2, αMeF(2F)6, 4Pal10, αMeL13, Orn16, Aib20, αMeY25; acylated K24, K31 (groups as in name); C-terminal amide
For the molecule B4, the “cAMP EC50 (1.0% HSA)” value in the assay with human GIP receptor was 1.06 nM; with human glucagon receptor [4], over 9950 nM.

B5: Y-Aib-EGT-αMeF(2F)-TSD-4Pal-SI-αMeL-LD-Orn-IAQ-Aib-EFIK((εK)-(γ-Glu)-CO-(CH2)12-CO2H)-αMeY-LIEGGK((εK)-(γ-Glu)-CO-(CH2)12-CO2H)SSGAPPPS-NH2 (peptide)
peptide: B1 peptide with Y10X, X11S, K17I, X24K
modifications: Aib2, αMeF(2F)6, 4Pal10, αMeL13, Orn16, Aib20, αMeY25; acylated K24, K31 (groups as in name); C-terminal amide
On to B5, for which the “cAMP EC50 (1.0% HSA)” value with human GIP receptor is 2.06 nM; with human glucagon receptor [4], over 9950 nM.

B6: Example 256 (peptide)
peptide: B1 peptide with Y10X, X11S, E28K, K31P
modifications: Aib2, αMeF(2F)6, 2Nal10, αMeL13, Orn16, K17(Z), Aib20, D-Glu24, αMeY25, K28(Z), C-terminal NH2; Z = AEEA2-CO-(CH2)12-CO2H
Regarding B6, the “cAMP EC50” value in assay [1] is 0.249 nM; in assay [2], 0.0175 nM; with human glucagon receptor [3], over 9950 nM.

B7: Example 208 (peptide)
peptide: B1 peptide with Y10X, X11S, E28K, K31P
modifications: Aib2, αMeF(2F)6, 4Pal10, αMeL13, Orn16, K17(Z), Aib20, D-Glu24, αMeY25, K28(Z), C-terminal NH2; Z = AEEA-(γ-Glu)-(4-(4-tert-butylphenyl)butanoyl)
With B7, the “cAMP EC50” value in assay [1] is 0.238 nM; in assay [2] it was 0.018 nM; with human glucagon receptor [3], over 9950 nM.

B8: Example 224 (peptide)
peptide: B1 peptide with Y10X, X11S, E28K, K31P
modifications: Aib2, αMeF(2F)6, 4Pal10, αMeL13, Orn16, K17(Z), Aib20, D-Glu24, αMeY25, K28(Z), C-terminal NH2; Z = AEEA3-(γ-Glu)-CO-(CH2)12-CO2H
As for B8, the “cAMP EC50” value in assay [1] was 7.51 nM; in assay [2] it was 0.0374 nM; with human glucagon receptor [3], over 9950 nM. Moreover, the “cAMP Emax” value in assay [1] stood at 88.4%.

B9: Example 249 (peptide)
peptide: B1 peptide with Y10X, X11S, E21K, K31P
modifications: Aib2, αMeF(2F)6, 2Nal10, αMeL13, Orn16, K17(Z), Aib20, K21(Z), D-Glu24, αMeY25, C-terminal NH2; Z = AEEA2-(γ-Glu)-CO-(CH2)12-CO2H
As for B9, the entries for the “cAMP EC50” value (in assay [1]; in assay [2]; in the assay with human glucagon receptor [3]) were 0.3 nM, 0.0201 nM and over 9950 nM, respectively.

B10: Example 202 (peptide)
peptide: B1 peptide with Y10X
modifications: Aib2, αMeF(2F)6, 4Pal10, Tle11, αMeL13, Orn16, K17(Z), Aib20, D-Glu24, αMeY25, K31(Z), C-terminal NH2; Z = AEEA2-(γ-Glu)-CO-(CH2)12-CO2H
For the molecule B10, the “cAMP EC50” value is 0.944 nM in assay [1], 0.057 nM in assay [2] and over 9950 nM with human glucagon receptor [3]. Further, the “cAMP Emax” value in assay [1] came to 92.2%; in assay [2], 86%.

B11: Example 207 (peptide)
peptide: B1 peptide with Y10X, X11S, E21K, K31P
modifications: Aib2, αMeF(2F)6, 4Pal10, αMeL13, Orn16, K17(Z), Aib20, K21(Z), D-Glu24, αMeY25, C-terminal NH2; Z = AEEA-(γ-Glu)-(4-(4-tert-butylphenyl)butanoyl)
On to B11, for which the figures for the “cAMP EC50” value (in assay [1]; in assay [2]; with human glucagon receptor [3]) were 0.209 nM, 0.019 nM and over 9950 nM, respectively.

B12: Example 211 (peptide)
peptide: B1 peptide with Y10X
modifications: Aib2, αMeF(2F)6, 4Pal10, Ac5c11, αMeL13, Orn16, K17(Z), Aib20, D-Glu24, αMeY25, K31(Z), C-terminal NH2; Z = AEEA2-(γ-Glu)-CO-(CH2)12-CO2H
On to B12, for which the “cAMP EC50” value was 3.55 nM in assay [1], 0.0465 nM in assay [2] and over 9950 nM in the assay with human glucagon receptor [3]. The “cAMP Emax” value in assay [1] worked out at 93.1%; in assay [2], 91.6%.

B13: Example 250 (peptide)
peptide: B1 peptide with Y10X, X11S, E28K, K31P
modifications: Aib2, αMeF(2F)6, 2Nal10, αMeL13, Orn16, K17(Z), Aib20, D-Glu24, αMeY25, K28(Z), C-terminal NH2; Z = AEEA2-(γ-Glu)-CO-(CH2)12-CO2H
B13: the “cAMP EC50” value was 0.414 nM in assay [1], 0.021 nM in assay [2] and over 9950 nM with human glucagon receptor [3].

B14: Example 213 (peptide)
peptide: B1 peptide with Y10X
modifications: Aib2, αMeF(2F)6, 4Pal10, αMeS11, αMeL13, Orn16, K17(Z), Aib20, D-Glu24, αMeY25, K31(Z), C-terminal NH2; Z = AEEA2-(γ-Glu)-CO-(CH2)12-CO2H
As for B14, the “cAMP EC50” value in assay [1] is 2.14 nM; in assay [2] it was 0.0275 nM; with human glucagon receptor [3] it was over 9950 nM. Further, the “cAMP Emax” value in assay [1] stood at 94.8%; in assay [2], 92%.

B15: Example 214 (peptide)
peptide: B1 peptide with Y10X, X24K, K31P
modifications: Aib2, αMeF(2F)6, 4Pal10, αMeS11, αMeL13, Orn16, K17(Z), Aib20, K24(Z), αMeY25, C-terminal NH2; Z = AEEA2-(γ-Glu)-CO-(CH2)12-CO2H
As to B15, the entries for the “cAMP EC50” value (in assay [1]; in assay [2]; with human glucagon receptor [3]) were 0.618 nM, 0.0351 nM and over 9950 nM, respectively. Further, the “cAMP Emax” value came to 93.2% in assay [1] and 93.7% in assay [2].

B16: Example 255 (peptide)
peptide: B1 peptide with Y10X, X11S, E21K, K31P
modifications: Aib2, αMeF(2F)6, 2Nal10, αMeL13, Orn16, K17(Z), Aib20, K21(Z), D-Glu24, αMeY25, C-terminal NH2; Z = AEEA2-CO-(CH2)12-CO2H
For B16, the entries for the “cAMP EC50” value (in assay [1]; in assay [2]; with human glucagon receptor [3]) were 0.357 nM, 0.0213 nM and over 9950 nM, respectively.
